Results on 1 substance are retold here after publication PMC3457783.

The target in the assay is TRα1PV (mutated thyroid hormone receptor α1 carrying the PV mutation) (UniProt P10827). The assay is described as follows: co-IP.

As for “nuclear receptor corepressor, NCoR1 (from UniProt Q60974 1-2453) (natural protein)”, the fold NCoR1 co-precipitated relative to TRβ1PV (before induction) stood at 1.6 fold and the fold NCoR1 co-precipitated relative to TRβ1PV (day 6 after induction) stood at 2 fold.
